Data taken from patent US20240350597A1, “PROTEASE INHIBITORS” (University College Dublin, priority 2023, published 2024).
Where a chain is given by its changes, count along the chain named. Entries after “also recorded” stand apart in the source; their conditions may differ. Read-outs that look alike come from different tables or passages of the source.

B1: B3-TMP: SerpinB3 variant with RCL residues 350 to 354 (P4 to P1′) replaced by IQFRV to inhibit TMPRSS2; SEQ ID No. 6 (protein)
chain: MNSLSEANTKFMFDLFQQFRKSKENNIFYSPISITSALGMVLLGAKDNTAQQIKKVLHFDQVTENTTGKAATYHVDRSGNVHHQFQKLLTEFNKSTDAYELKIANKLFGEKTYLFLQEYLDAIKKFYQTSVESVDFANAPEESRKKINSWVESQTNEKIKNLIPEGNIGSNTTLVLVNAIYFKGQWEKKFNKEDTKEEKFWPNKNTYKSIQMMRQYTSFHFASLEDVQAKVLEIPYKGKDLSMIVLLPNEIDGLQKLEEKLTAEKLMEWTSLQNMRETRVDLHLPRFKVEESYDLKDTLRTMGMVDIFNGDADLSGMTGSRGLVLSGVLHKAFVEVTEEGAEAAAATAVIQFRVSPTSTNEEFHCNHPFLFFIRQNKTNSILFYGRFSSP
B2: B3-WT: Wild type recombinant SerpinB3 (SCCA-1), 44.5 kDa cross-class inhibitor of cysteine proteases including CatL; SEQ ID No. 5 (protein, listed as Homo sapiens)
chain: B1 chain with I350V, Q351G, R353G, V354S

Experiments:
Omicron BA.5 SARS-CoV-2 = type: cell-based
Cathepsin L (CatL) = molecular target: T1, Cathepsin L (CatL) (Homo sapiens, UniProt P07711); assay: Protease inhibition assay, fluorogenic substrate cleavage, cathepsin L; type: biochemical; settings: excess of serpin over protease, 2 min incubation, substrate Z-FR-AMC
T1 construct: gift: Dr Matej Vizovišek, Jozef Stefan Institute, Slovenia
Method: By monitoring the linear rate of cleavage of fluorogenic substrates, protease specificity of purified proteins was assessed. CatL was gifted by Dr Matej Vizovišek, Jozef Stefan Institute, Slovenia. TMPRSS2 was obtained from Cusabio Technology and furin from BioLegend.
Proteases were incubated with a 1:5 molar excess of serpin and residual activity was determined by cleavage of fluorescent substrates. All assays were carried out at room temperature in 96-well plates in a total volume of 100 μL. Residual proteolytic activity was measured using a SpectraMax M3 Microplate Reader (Molecular Devices, Inc), using the appropriate buffer and synthetic fluorogenic peptide substrate: Cathepsin L, Z-FR-AMC (10 μM), 50 mM Na-Acetate, 100 mM NaCl, 1 mM EDTA, pH 5.5; Chymotrypsin, Z-AAPF-AMC (5 μM), PBS, 1 mg/ml BSA; Elastase, Met-O-Suc-AAPV-AMC (10 μM), 50 mM Tris, 120 mM NaCl, pH 8.0, 1 mg/ml BSA; Furin, Boc-RVRR-AMC (50 μM) 20 mM Tris, 1 mM CaCl2), 0.5% Brij-35, pH 9; TMPRSS2, Boc-QAR-AMC (80 μM), PBS; Trypsin, Z-FR-AMC (10 μM), 50 mM Tris, 0.2 mM DTT, 1 mg/ml BSA. The excitation and emission wavelengths used were 380 nm and 460 nm respectively. All assays were performed in triplicate.

[1] = test system: SARS-CoV-2 Spike pseudoparticles; type: cell-based
TMPRSS2 [2] = molecular target: T2, TMPRSS2 (Homo sapiens, UniProt O15393); type: biochemical; set-up: purchased Cusabio Technology
TMPRSS2 [3] = molecular target: T2, TMPRSS2; assay: Kinetic analysis of TMPRSS2 inhibition under pseudo first-order conditions; type: biochemical; set-up: purchased Cusabio Technology; settings: room temperature, TMPRSS2 0.1 μM
Method: For kinetic analysis of TMPRSS2 inhibition, second order inhibition rate constants were determined under pseudo first-order conditions using a range of serpin concentrations, and with TMPRSS2 buffer and substrate detailed above. Reactions were performed at room temperature and residual activity was determined at intervals over a 10 min incubation with a molar excess of serpin over protease. Concentration ranges were 0.12 to 0.44 μM for B3-TMP and 1.0 to 4 μM for A1AT. The apparent first order rate constant kobs for each concentration was calculated from the slope of the natural log of residual activity over time (−kobs). These values were plotted against inhibitor concentration and linear regression analysis of this plot gave the second order inhibition rate constant k2, with standard error determined.

T2 sequence (O15393 whole entry): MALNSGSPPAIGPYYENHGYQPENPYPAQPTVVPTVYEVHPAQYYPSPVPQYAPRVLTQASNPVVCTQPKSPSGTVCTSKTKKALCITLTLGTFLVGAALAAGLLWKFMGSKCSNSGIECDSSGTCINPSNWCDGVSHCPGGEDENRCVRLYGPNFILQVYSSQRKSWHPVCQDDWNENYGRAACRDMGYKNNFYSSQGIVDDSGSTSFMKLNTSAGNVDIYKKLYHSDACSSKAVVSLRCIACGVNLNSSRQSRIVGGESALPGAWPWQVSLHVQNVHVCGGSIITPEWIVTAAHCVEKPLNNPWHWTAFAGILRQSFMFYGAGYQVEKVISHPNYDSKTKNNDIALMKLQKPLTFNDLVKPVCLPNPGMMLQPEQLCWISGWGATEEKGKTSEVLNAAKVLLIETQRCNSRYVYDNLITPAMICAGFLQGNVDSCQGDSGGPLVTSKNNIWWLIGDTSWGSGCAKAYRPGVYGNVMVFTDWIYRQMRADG
T1 sequence (P07711 114-333): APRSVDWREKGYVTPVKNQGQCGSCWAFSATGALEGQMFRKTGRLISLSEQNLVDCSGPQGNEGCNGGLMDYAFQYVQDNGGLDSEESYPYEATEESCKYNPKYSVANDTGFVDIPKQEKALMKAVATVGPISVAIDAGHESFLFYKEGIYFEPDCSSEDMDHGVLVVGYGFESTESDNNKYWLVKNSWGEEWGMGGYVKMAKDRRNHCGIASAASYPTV

Molecule | inhibition of SARS-CoV-2 Omicron BA.5 infection (in words) (Omicron BA.5 SARS-CoV-2) | CatL inhibition (Cathepsin L (CatL)) | inhibition of pseudoparticle entry (in words) ([1]; 6.25 μM to 50 μM, A549-ACE2-TMPRSS2 cells) | inhibition of pseudoparticle entry ([1]; 12.5 μM, A549-ACE2-TMPRSS2 cells) | inhibition of pseudoparticle entry ([1]; 50 µM) | selectivity for TMPRSS2 versus elastase, trypsin, chymotrypsin (in words) (TMPRSS2 [2]) | second order inhibition rate constant k2 of TMPRSS2 inhibition (TMPRSS2 [3])
B1 | greater inhibitor for both viral strains than WT-SerpinB3; also recorded: inhibit Omicron BA.5 infection to a greater extent than the B3-WT | 81% | reduce SARS-CoV-2 (D614G) pseudoparticle entry | 70% | 90% | better selectivity for TMPRSS2 than A1AT | (9±1.1)×10^3 M^−1 s^−1
B2 | reductions in SARS-CoV-2 infection | 95% | – | – | – | – | –
